Assay results published in paper doi:10.1101/2021.04.08.439061.
No end group written: not given here. *: point of attachment. 5FAM = O=C1OC2(c3ccc(O)cc3Oc3cc(O)ccc32)c2ccc(C(=O)*)cc21

Biological target: HLA-A*03:01 (recombinant soluble heavy chain with β2-microglobulin) (human)
Test: fluorescence polarisation

B1: pWT peptide fluorescently labeled at P5 (5-carboxyfluorescein-modified lysine in place of P5 Gly) (peptide)
peptide: AHHGK(5FAM)WTTK
Which t1/2 of dissociation does the source give for B1 here?
The t1/2 of dissociation was 4.68 min.
